Measurements reported in US20230088269A1 (ARGENX BVBA, published 2023).

T1: recombinant human IL-22R (R&D Systems / Biotechne 2770-LR) (human, UniProt Q8N6P7 16-228)
T1 construct: Bought soluble recombinant protein (said to be 25 kDa); also called hIL22R; IL-22R1
T1 sequence: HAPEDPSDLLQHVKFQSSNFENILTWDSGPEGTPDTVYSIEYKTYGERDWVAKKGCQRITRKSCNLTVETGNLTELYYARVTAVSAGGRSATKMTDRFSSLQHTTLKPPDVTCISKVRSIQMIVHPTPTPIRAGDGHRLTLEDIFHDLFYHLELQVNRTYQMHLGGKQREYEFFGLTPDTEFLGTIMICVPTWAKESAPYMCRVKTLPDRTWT

T2: recombinant mouse IL22R (monomeric, R&D Systems cat 4248-MR) (mouse, UniProt Q80XZ4 16-230)
T2 construct: extracellular domain; also called murine IL-22R; mIL22R
T2 sequence (looked up): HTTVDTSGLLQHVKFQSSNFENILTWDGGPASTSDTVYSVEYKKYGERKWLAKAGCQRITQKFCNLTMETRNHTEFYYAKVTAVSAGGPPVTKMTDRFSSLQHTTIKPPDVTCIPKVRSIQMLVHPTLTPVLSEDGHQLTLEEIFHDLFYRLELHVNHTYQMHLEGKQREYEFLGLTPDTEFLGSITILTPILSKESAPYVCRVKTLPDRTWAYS

T3: rhIL22R-Fc (rhesus IL22R ECD fused to human Fc) (rhesus monkey, UniProt G7MHN4 16-228)
T3 construct: also called rhesus IL-22R1
T3 sequence: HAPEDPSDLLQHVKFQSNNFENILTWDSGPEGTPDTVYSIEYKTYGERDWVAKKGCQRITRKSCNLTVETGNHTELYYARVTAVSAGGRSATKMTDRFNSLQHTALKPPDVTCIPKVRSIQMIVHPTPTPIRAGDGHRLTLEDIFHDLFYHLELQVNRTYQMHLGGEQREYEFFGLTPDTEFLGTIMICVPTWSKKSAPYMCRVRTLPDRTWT

T4: human IL-22R expressed on cells (BW-hIL22R, Baf3-hIL22R/IL20Rb, transfected HEK, primary human skin cells) (human, UniProt Q8N6P7 16-574)
T4 sequence: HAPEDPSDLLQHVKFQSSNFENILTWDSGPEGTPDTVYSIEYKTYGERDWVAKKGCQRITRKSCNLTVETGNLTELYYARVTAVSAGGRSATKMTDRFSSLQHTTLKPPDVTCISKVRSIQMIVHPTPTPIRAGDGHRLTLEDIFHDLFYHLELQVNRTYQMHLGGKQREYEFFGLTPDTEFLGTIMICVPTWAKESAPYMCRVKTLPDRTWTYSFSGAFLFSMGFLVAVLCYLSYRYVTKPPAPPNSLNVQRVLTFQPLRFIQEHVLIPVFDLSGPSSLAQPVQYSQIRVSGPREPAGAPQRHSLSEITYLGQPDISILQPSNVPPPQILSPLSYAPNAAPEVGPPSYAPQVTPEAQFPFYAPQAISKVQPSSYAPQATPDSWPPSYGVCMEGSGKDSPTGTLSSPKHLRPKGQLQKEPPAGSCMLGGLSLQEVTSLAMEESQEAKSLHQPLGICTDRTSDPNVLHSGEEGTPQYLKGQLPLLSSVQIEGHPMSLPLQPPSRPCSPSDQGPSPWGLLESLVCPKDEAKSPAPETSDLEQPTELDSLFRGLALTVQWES


How the values were obtained:
[1] = biological target: T1, recombinant human IL-22R (R&D Systems / …); assay: SPR (Biacore), purified Fab
[2] = biological target: T2, recombinant mouse IL22R (monomeric, R&D …); assay: SPR (Biacore), purified Fab
[3] = biological target: T3, rhIL22R-Fc (rhesus IL22R ECD fused to …); assay: off-rate of Fab fragment; method not stated
[4] = biological target: T1, recombinant human IL-22R (R&D Systems / …); assay: off-rate of Fab fragment; method not stated
[5] = biological target: T4, human IL-22R expressed on cells …; assay: cell-based or functional assay
[6] = biological target: T4, human IL-22R expressed on cells …; assay: cell-based or functional assay; remark: listed apart in the source
[7] = biological target: T1, recombinant human IL-22R (R&D Systems / …); assay: SPR (Biacore 3000), IL22R on CM5 chip, IgG1 injected
Experimental: In addition to the potency on cells, the in vitro binding kinetics and blocking activity of the purified antibodies were measured in Biacore (3000). […] Antibodies tested at a range of concentrations and prepared in HBSEP buffer at pH 7.4 (Biacore) were injected at 30 μl/min for 60 second and washed with HBSEP buffer at pH 7.4 (Biacore) for 10-20 min. The obtained sensograms were analyzed with the BIAevaluation software and kinetics were determined using standard fitting (Langmuir 1:1 with mass transfer).

[8] = biological target: cynoIL22R_ECD-humanTM_humanICD chimera on transfected cells (cynomolgus monkey; human, UniProt Q8N6P7 229-574); assay: cell-based or functional assay
[9] = biological target: T4, human IL-22R expressed on cells …; assay: cell-based or functional assay; remark: listed apart in the source
[10] = biological target: rhesus IL22R ECD - human TM - human ICD chimera on transfected HEK cells (rhesus monkey; human, UniProt Q8N6P7 229-574); assay: cell-based or functional assay
[11] = biological target: T1, recombinant human IL-22R (R&D Systems / …); assay: SPR (Biacore), hIL22R on CM5 chip, mAb injected, 1:1 Langmuir
Experimental: The affinity of the 230C9 and 223G5 antibodies was measured using SPR ([…]). In brief, 250RU of human IL22R (Biotechne, 2770-LR) was coated onto a CM5 chip using standard methods (EDC coupling of IL22R at a concentration of 2 μg/ml in acetate buffer pH4.5). Then various concentrations of antibody were injected in HBSEP+ buffer (pH 7.4) for 2 minutes. The binding was monitored also during a 10 min washing (HBSEP+).

[12] = biological target: T2, recombinant mouse IL22R (monomeric, R&D …); assay: ELISA and SPR (Biacore), mAb
Experimental: After production and purification of the cyIL22R-Fc and the rhIL22R-Fc, the binding specificity to cynomolgus, rhesus and mouse IL22R ECD of all the antibodies from primary selection was tested in ELISA and by SPR (Biacore). Monomeric mouse IL22R was purchased from R&D Systems (cat 4248-MR).

| koff [3] [s⁻¹] | koff [4] [s⁻¹] | Kd [7] [nM] | koff [7] [s⁻¹] | kon [7] [M⁻¹ s⁻¹] | also measured | Binder |
| --- | --- | --- | --- | --- | --- | --- |
| – | – | – | – | – | koff [1]: 0.0037 s⁻¹; binding result [2]: no binding | 157A2 Fab (Fab, V domains shown, VH family 4; purified llama Fab) VH: QVQLVESGGGLVQPGGSLRLSCAASGFTFSSYDMSWVRQAPGKGLEWVSSIYNDGSNTAYSDSVKGRFTISRDNAKNTLYLQMNSLKSEDTAVYYCAKVGFSGTYYSESWGQGTQVTVSS VL: NFMLTQPSAVSVSLGQTAKITCQGGYYAHWYQQKPGQAPVLVIYGNNNRPSGIPERFSGSSSGNTATLTISGAQAEDEAEYYCQSGSSSANAVFGGGTHLTVL |
| 0.00097 | 0.00081 | – | – | – | – | 218A7 Fab (Fab, V domains shown, Light chain shuffled variant of 157A2) VH: QVQLVESGGGLVQPGGSLRLSCAASGFTFSSYDMSWVRQAPGKGLEWVSSIYNDGSNTAYSDSVKGRFTISRDNAKNTLYLQMNSLKSEDTAVYYCAKVGFSGTYYSESWGQGTQVTVSS VL: LPVLTQPSAVSVSLGQTARITCQGGYYAHWYQQKPGQAPVLVIYGQNNRPSGIPERFSGSGAGNTATLTISGAQAEDEAEYYCQSGSSSANAVFGGGTKLTVL |
| – | – | 0.24 | 6.4e-05 | 270000 | IC50 blocking IL-22 (nM), BWhIL22R cell line [5]: 0.69 nM; Relative potency to 280.346.TSY (IL-22, BWhIL22R cell line) [5]: 1 fold; IC50 blocking IL-20 (nM), Baf3hIL22R/IL20Rb cell line [6]: 1.49 nM; EC50 (nM), STAT3-reporter in HEK cells after human IL22, Cyno ECD [8]: 0.16 nM; EC50 (nM), STAT3-reporter in HEK cells after human IL22, Human ECD [9]: 0.26 nM; EC50 (nM), STAT3-reporter in HEK cells after human IL22, Rhesus ECD [10]: 0.43 nM; Kd [11]: 0.69 nM; koff [11]: 0.00034 s⁻¹; kon [11]: 490000 M⁻¹ s⁻¹ | 280.346.TSY (benchmark humanised IL-22R antibody of WO2011/061119) (antibody, V domains shown) VH: EVQLVESGGGLVQPGGSLRLSCAASGYSITAEYMNWVRQAPGKGLEWIGEINPSTGTTTYNQKFKGRFTISVDQSKNTAYLQMNSLRAEDTAVYYCARFDAYFDYWGQGTLVTVSS VL: not shown |
| 0.00584 | 0.000529 | – | – | – | – | 223G5 Fab (Fab, V domains shown, Germlined variant of 166G8) VH: QVQLVESGGGLVQPGGSLRLSCAASGFTFSSYFMSWVRQAPGKGPEWVSGIHISGGITYYTDSVKGRFTISRDNAKNTLYLQMNSLRAEDTAVYYCVTPPGPFKAHYNGAKYWGKGTLVTVSS VL: QSALTQPPSVSGSPGQSVTISCTGTSSDIGSYNYVSWYQQLPGKAPKLLIYEVNKRSSGVPDRFSGSKSGNTASLTISGLQAEDEADYYCASYRLYADYVFGGGTQLTVL |
| 0.000436 | 0.000352 | – | – | – | – | 230C9 Fab (Fab, V domains shown, Germlined variant of 218A7) VH: QVQLVESGGGLVQPGGSLRLSCAASGFTFSSYDMNWVRQAPGKGLEWVSSIYNDASNTAYSDSVKGRFTISRDNSKNTLYLQMNSLRAEDTAVYYCAKVGFSGTYYSESWGQGTLVTVSS VL: SYELTQPSSVSVALGQTARITCQGGYYAHWYQQKPGQAPVLVIYGQNNRPSGIPERFSGSGAGNTATLTISRAQAEDEADYYCQSGSSSSNAVFGGGTKLTVL |
| – | – | 0.12 | 9.3e-05 | 760000 | – | 170B2 mAb (antibody, V domains shown) VH: EVQLVESGGGLVQPGGSLRLSCAASGFTFSSSWMYWVRQAPGKGLEFVSVINTRSGITHYVESVKGRFTISTDNAKNTLFLQMNSLKSEDTAVYYCATRIQGLIDYWGQGTQVTVSS VL: DIVMTQSPSSLSVSLGDRVTITCQASQSIGSVNALAWYQQKPGQSLKLLIHGASRLQTGVPSRFSGSGSGTSFTLAISGVEAEDLATYYCLQDYAWPLTFGQGTKVELK |
| – | – | 2.8 | 0.0011 | 390000 | binding result [12]: no binding | 157A2 mAb (antibody, IgG1, V domains shown, VH family 4; produced as IgG1 with human constant domains) VH: QVQLVESGGGLVQPGGSLRLSCAASGFTFSSYDMSWVRQAPGKGLEWVSSIYNDGSNTAYSDSVKGRFTISRDNAKNTLYLQMNSLKSEDTAVYYCAKVGFSGTYYSESWGQGTQVTVSS VL: NFMLTQPSAVSVSLGQTAKITCQGGYYAHWYQQKPGQAPVLVIYGNNNRPSGIPERFSGSSSGNTATLTISGAQAEDEAEYYCQSGSSSANAVFGGGTHLTVL |
| – | – | 0.022 | 0.0002 | 9.2e+06 | binding result [12]: no binding | 166G8 mAb (antibody, IgG1, V domains shown, VH family 5; produced as IgG1 with human constant domains) VH: QVQLVESGGGLVQPGDSLRLSCAASGFTFGSYFMSWVRQAPGKGPEWVSGIHISGGITYYLDSVKGRFTISRDNAKNTLYLQMNNLKPEDTAVYYCVTPPGPFKAHYNGMKYWGKGTLVTVSS VL: NFMLTQPPSVSGTLGKTVTISCTGTSRDIGDYNYVSWYQQLPGLAPKLLIYKVNTRSSGTPDRFSGSKSGNTASLTISGLQSEDEADYYCASYRLYADYVFGGGTHLTVL |
